According to patent US20140314784A1 (MEDLMMUNE, published 2014):

Columns and labels:
mouse CXCR4 [1] = target: T1, mouse CXCR4 (mouse, UniProt P70658 1-359); assay: FMAT, hybridoma supernatant on HEK293T cells transiently overexpressing full-length mouse CXCR4
T1 construct: Full-length murine CXCR4 on transiently transfected HEK293T cells; also native on mouse lymphocytes and the EL4 line; also called murine CXCR4
Experimental: (§1) Supernatants collected from harvested cells were tested to assess the ability of the secreted antibodies to bind to HEK293T cells transiently overexpressing either full-length human, murine or cynomolgus monkey CXCR4. […] Cells diluted in PBS containing 2% FBS were seeded at a density of 3000 expressing and 15000 mock transfected cells per well in 384 well plates (Corning Costar, catalog #3712). Immediately after plating, 15 or 20 μl/well of hybridoma supernatants and 10 μl/well of secondary antibody (Goat anti-human IgG Fc Cy5, final concentration 750 ng/ml) were added and plates incubated for 3 hours at room temperature prior to reading the fluorescence on the FMAT 8200 instrument (Applied Biosystems). The product of number of positive events and fluorescence intensity was used as a measure of binding strength.

human CXCR4 [2] = target: T2, human CXCR4 (human, UniProt P61073 1-352); assay: FACS, hybridoma supernatant pre-incubated with human CXCR4 transfected HEK293T cells, competitor Alexa-647 SDF-1
T2 construct: also called CXCR4 receptor; C-X-C chemokine receptor type 4
T2 sequence (P61073 whole entry): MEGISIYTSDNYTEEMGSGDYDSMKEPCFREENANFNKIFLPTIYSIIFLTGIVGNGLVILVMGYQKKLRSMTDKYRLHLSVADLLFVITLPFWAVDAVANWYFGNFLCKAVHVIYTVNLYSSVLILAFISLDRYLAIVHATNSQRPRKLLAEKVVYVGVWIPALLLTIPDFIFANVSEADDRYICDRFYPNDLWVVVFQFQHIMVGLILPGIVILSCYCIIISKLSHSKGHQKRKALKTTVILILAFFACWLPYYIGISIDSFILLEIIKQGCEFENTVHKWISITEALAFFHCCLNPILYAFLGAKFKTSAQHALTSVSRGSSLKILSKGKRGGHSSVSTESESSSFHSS

human CXCR4 [3] = target: T2, human CXCR4; assay: FMAT, hybridoma supernatant on HEK293T cells transiently overexpressing full-length human CXCR4
Experimental: as §1

mouse CXCR4 [4] = target: T1, mouse CXCR4; assay: FMAT, hybridoma supernatant on HEK293T cells transiently overexpressing mouse CXCR4
Experimental: as §1

human CXCR4 [5] = target: T2, human CXCR4; assay: cell-based or functional assay
human CXCR4 [6] = target: T2, human CXCR4; assay: cell-based or functional assay; remark: listed apart in the source
cynomolgus monkey CXCR4 = target: T3, cynomolgus monkey CXCR4 (cynomolgus monkey, UniProt Q28474 1-352); assay: FMAT, hybridoma supernatant on HEK293T cells transiently overexpressing full-length cynomolgus CXCR4
T3 construct: whole, on cells; On transiently transfected HEK293T cells or endogenous on the cynomolgus T-cell line HSC-F; also called Cynomolgus CXCR4
T3 sequence (Q28474 whole entry): as the sequence (P61073 whole entry) above, with M24I, N35H, K38R, R146K, N176S counted along it
Experimental: as §1

T1 sequence (P70658 whole entry): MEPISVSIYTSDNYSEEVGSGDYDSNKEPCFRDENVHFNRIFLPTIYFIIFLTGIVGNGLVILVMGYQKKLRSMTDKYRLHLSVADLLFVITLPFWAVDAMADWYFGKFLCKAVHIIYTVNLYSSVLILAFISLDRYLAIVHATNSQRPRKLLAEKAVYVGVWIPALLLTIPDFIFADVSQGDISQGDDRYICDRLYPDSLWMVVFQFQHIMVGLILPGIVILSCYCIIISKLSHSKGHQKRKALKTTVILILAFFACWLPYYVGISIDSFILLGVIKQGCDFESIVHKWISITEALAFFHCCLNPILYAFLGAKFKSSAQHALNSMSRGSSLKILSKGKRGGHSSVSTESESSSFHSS

B1: 5C9 (antibody, V domains shown)
VH: QVQLVESGGGVVQPGRSLRLSCAASGFTFSSYGLHWVRQSPGKGLEWVAVISYDGSKKYYADSVKGRFSISRDNSKNTLYLQMNSLRAEDTAVYYCARDRPSRYSSCMDVWGQGTTVTVSS
VL: QSALTQPASVSGSPGQSITISCTGTSSDVGSNNFVSWYQQHPGKAPKLMIYEVSKRPSGVSNRFSGSKSGNTASLTISGLQAEDEADYYCCSYAGSNTLVFGGGTKLTVL
notes: Fully human monoclonal antibody from XenoMouse hybridoma (lambda light chain)
Binder B1 has a Count (mouse CXCR4 [1]) of 72, an FL1 (mouse CXCR4 [1]) of 4780 and an FL1 x count (mouse CXCR4 [1]) of 344000. The “% Inhibition of SDF-1 binding” value (human CXCR4 [2]) was -1%, the Count (human CXCR4 [3]) was 233 and the FL1 (human CXCR4 [3]) was 8800. For the same binder, the FL1 x count (human CXCR4 [3]) was 2.05e+06, the binding result (mouse CXCR4 [4]) was “no binding” and the “% Inhibition 1 hr (Jurkat chemotaxis)” value (human CXCR4 [5]) was 74%. The “% Inhibition 24 hr (Jurkat chemotaxis)” value (human CXCR4 [5]) was 44%, the “Jurkat chemotaxis inhibition IC50 pM” value (human CXCR4 [6]) was 28200 pM and the “Jurkat chemotaxis inhibition IC50” value (human CXCR4 [6]) was 4.22 µg/mL. It also gave a Count (cynomolgus monkey CXCR4) of 106, an FL1 (cynomolgus monkey CXCR4) of 7320 and an FL1 x count (cynomolgus monkey CXCR4) of 776000.
